Measurements from paper PMC5731645 (Neuron, 2017).
Like-named read-outs stand apart in the source and are kept apart here. Values belong to the binder of their own block, whether it stands above or below them.

B1: DISC1 322–852 (domain or fragment, mouse, UniProt Q811T9-1 322-852, looked up)
chain: ADAHGWHTLLREWEPMLQDYLLSNRRQLEVTSLILKLQKCQEKVVEDGDYDTAETLRQRLEELEQEKGRLSWALPSQQPALRSFLGYLAAQIQVALHGATQRAGSDDPEAPLEGQLRTTAQDSLPASITRRDWLIREKQRLQKEIEALQARMSALEAKEKRLSQELEEQEVLLRWPGCDLMALVAQMSPGQLQEVSKALGETLTSANQAPFQVEPPETLRSLRERTKSLNLAVRELTAQVCSGEKLCSSLRRRLSDLDTRLPALLEAKMLALSGSCFSTAKELTEEIWALSSEREGLEMFLGRLLALSSRNSRRLGIVKEDHLRCRQDLALQDAAHKTRMKANTVKCMEVLEGQLSSCRCPLLGRVWKADLETCQLLMQSLQLQEAGSSPHAEDEEQVHSTGEAAQTAALAVPRTPHPEEEKSPLQVLQEWDTHSALSPHCAAGPWKEDSHIVSAEVGEKCEAIGVKLLHLEDQLLGAMYSHDEALFQSLQGELQTVKETLQAMILQLQPTKEAGEASASYPTAGAQETEA
B3: DISC1 765–835 (domain or fragment, mouse, UniProt Q811T9-1 765-835, looked up)
chain: GPWKEDSHIVSAEVGEKCEAIGVKLLHLEDQLLGAMYSHDEALFQSLQGELQTVKETLQAMILQLQPTKEA
B5: full-length Nde1 (natural protein, human, UniProt Q9NXR1-2 1-335, looked up)
chain: MEDSGKTFSSEEEEANYWKDLAMTYKQRAENTQEELREFQEGSREYEAELETQLQQIETRNRDLLSENNRLRMELETIKEKFEVQHSEGYRQISALEDDLAQTKAIKDQLQKYIRELEQANDDLERAKRATIMSLEDFEQRLNQAIERNAFLESELDEKENLLESVQRLKDEARDLRQELAVQQKQEKPRTPMPSSVEAERTDTAVQATGSVPSTPIAHRGPSSSLNTPGSFRRGLDDSTGGTPLTPAARISALNIVGDLLRKVGALESKLASCRNLVYDQSPNRTGGPASGRSSKNRDGGERRPSSTSVPLGDKGLDTSCRWLSKSTTRSSSSC

Assays:
full-length Nde1 = target: B5; assay: ITC
SEC-MALS [1] = target: the molecule itself; assay: SEC-MALS
SEC-MALS [2] = target: the molecule itself; assay: SEC-MALS; remark: listed apart in the source
trx-Ndel1 CT-CC = target: T1, trx-Ndel1 CT-CC (mouse, UniProt Q9ERR1-1 238-284); assay: SEC-MALS
T1 chain (looked up): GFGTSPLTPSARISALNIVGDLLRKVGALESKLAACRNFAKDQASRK

DISC1 765–835 = target: B3; assay: ITC
DISC1 322–852 = target: B1; assay: ITC
DISC1 765–852 = target: T2, DISC1 765–852 (mouse, UniProt Q811T9-1 765-852); assay: NMR structure
T2 sequence (looked up): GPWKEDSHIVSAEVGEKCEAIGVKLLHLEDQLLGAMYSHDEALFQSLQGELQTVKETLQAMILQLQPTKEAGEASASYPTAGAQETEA

Binder: B1
- stoichiometry N (full-length Nde1): 1

B2: Ndel1 with the C-terminal half (aa 194–345) truncated (domain or fragment, mouse, UniProt Q9ERR1-1 1-193, looked up)
chain: MDGEDIPDFSSLKEETAYWKELSLKYKQSFQEARDELVEFQEGSRELEAELEAQLVQAEQRNRDLQADNQRLKYEVEALKEKLEHQYAQSYKQVSVLEDDLSQTRAIKEQLHKYVRELEQANDDLERAKRATIVSLEDFEQRLNQAIERNAFLESELDEKESLLVSVQRLKDEARDLRQELAVRERQQEVTRK
- stoichiometry N (SEC-MALS [1]): 2

Binder: B3
- binding result (full-length Nde1): binds
- stoichiometry N (SEC-MALS [2]): 2
- stoichiometry N (trx-Ndel1 CT-CC): 1

- binding result (DISC1 765–835): binds
Binder: STGGTPLTPAARISALNIVGDLLRKVGALESKLASCRNLVYDQSPNRT (domain or fragment, human, UniProt Q9NXR1-2 239-286, looked up) [Nde1 CT-CC]

B4: full-length Ndel1 (natural protein, mouse, UniProt Q9ERR1-1 1-345, looked up)
chain: MDGEDIPDFSSLKEETAYWKELSLKYKQSFQEARDELVEFQEGSRELEAELEAQLVQAEQRNRDLQADNQRLKYEVEALKEKLEHQYAQSYKQVSVLEDDLSQTRAIKEQLHKYVRELEQANDDLERAKRATIVSLEDFEQRLNQAIERNAFLESELDEKESLLVSVQRLKDEARDLRQELAVRERQQEVTRKSAPSSPTLDCEKMDSAVQASLSLPATPVGKGTENSFPSPKAIPNGFGTSPLTPSARISALNIVGDLLRKVGALESKLAACRNFAKDQASRKSYVPGSVNCGVMNSNGPECPRSGRATFFHKGAVNGFDPAPPPPGLGSSRPSSAPGMLPLSV
- stoichiometry N (SEC-MALS [1]): 2

Binder: B5
- Kd (DISC1 322–852): ~40 nM

- binding result (DISC1 765–852): binds
- binding result (DISC1 765–835): binds
Binder: GFGTSPLTPSARISALNIVGDLLRKVGALESKLAACRNFAKDQASRK (domain or fragment, mouse, UniProt Q9ERR1-1 238-284, looked up) [Ndel1 CT-CC]
